Two molecules from publication PMC2291074 (Molecular Vision, 2008) can be followed below.

Assay [1] concerns the target T1, recombinant human αB-crystallin (human, UniProt P02511 1-175).
T1 construct: human αB-crystallin, cDNA cloned into pET-23d(+); tryptic peptides 1-11 and 164-175 were observed; No tag is named and purification was by SEC and ion exchange, so it is probably untagged; source: E. coli BL21(DE3) pLysS, purified (size exclusion chromatography, then ion-exchange chromatography)
T1 sequence (looked up): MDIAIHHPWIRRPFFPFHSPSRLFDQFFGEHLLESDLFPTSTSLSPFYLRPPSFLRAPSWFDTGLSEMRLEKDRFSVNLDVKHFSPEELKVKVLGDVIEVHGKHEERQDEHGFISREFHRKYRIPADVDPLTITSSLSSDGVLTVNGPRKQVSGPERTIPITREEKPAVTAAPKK

Assay [2] has as its target T1, recombinant human αB-crystallin. Nature of the assay: cross-linking; sulfo-SBED label transfer: 0.25 mg derivatized peptide with 0.25 mg αB-crystallin at 37 °C for 2 h; unbound peptide removed on a 10,000 Da cut-off filter; photolysis at 365 nm for 15 min on ice; biotin on αB-crystallin detected by SDS-PAGE and avidin-HRP blot. Conditions: both partners purified.

Ends that are not written are not given here.

With SDADHGERLMSFRPIC [substituted peptide], the light scattering at 60 min of βL-crystallin (100 μg) denatured at 55 °C with 5 μg αB-crystallin and 60 μg substituted peptide (αB-crystallin alone: decreased by 41%); no anti-chaperone effect in assay [1] came out at 53%.

B1: sulfo-SBED-derivatized βA3/A1_(102–117) peptide (peptide)
peptide: SDAYHIERLMSFRPIC
modifications: also: sulfo-SBED cross-linker attached, site not given here
notes: The peptide has no lysine, so the amine-specific reagent probably sits on the N-terminal amine; also called biotin-derivatized peptide; source: synthetic peptide, purified by HPLC, derivatized with sulfo-SBED and dialyzed
Turning to B1, the binding result in assay [2] was “binds”.
